According to patent US6312887:

Biological target: T1, STAT-1alpha wild type (transfected in U3A cells) (Homo sapiens) (UniProt P42224)
T1 sequence: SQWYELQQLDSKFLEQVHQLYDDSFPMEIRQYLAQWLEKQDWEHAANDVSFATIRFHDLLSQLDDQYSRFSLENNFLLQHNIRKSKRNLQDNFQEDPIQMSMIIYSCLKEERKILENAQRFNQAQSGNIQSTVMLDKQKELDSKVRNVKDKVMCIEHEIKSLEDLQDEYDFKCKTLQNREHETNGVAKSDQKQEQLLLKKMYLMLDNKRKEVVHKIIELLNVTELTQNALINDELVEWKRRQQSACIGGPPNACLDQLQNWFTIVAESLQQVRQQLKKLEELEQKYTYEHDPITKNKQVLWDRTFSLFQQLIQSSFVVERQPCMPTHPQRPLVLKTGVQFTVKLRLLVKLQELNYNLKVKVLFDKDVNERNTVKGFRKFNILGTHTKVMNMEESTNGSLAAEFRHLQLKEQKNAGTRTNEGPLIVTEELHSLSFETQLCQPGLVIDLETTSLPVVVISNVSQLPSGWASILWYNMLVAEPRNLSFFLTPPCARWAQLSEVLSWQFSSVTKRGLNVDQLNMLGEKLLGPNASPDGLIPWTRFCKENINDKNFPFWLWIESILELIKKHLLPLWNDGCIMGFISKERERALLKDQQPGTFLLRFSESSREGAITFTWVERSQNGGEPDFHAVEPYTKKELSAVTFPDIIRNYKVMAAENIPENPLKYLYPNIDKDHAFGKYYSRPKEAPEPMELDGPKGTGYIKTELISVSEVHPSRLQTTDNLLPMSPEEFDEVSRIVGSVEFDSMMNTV
Test: cell_activity
Settings: luciferase reporter in U3A cells, IFN-gamma 5 ng/ml 10 h

Sequence: GATCAGTTCCCGTCAATCNATGATCCAGTTCCCGTCAATGATCCCCGGGATC (double strand) [tandem weak c-fos STAT-1 sites reporter enhancer]
- activity (fold induction): 2
